Laboratory results published in patent US20260152732.

Test system: T1, DNASE1-LIKE 3, Isoform 1 (wild-type human D1L3), purified
T1 sequence: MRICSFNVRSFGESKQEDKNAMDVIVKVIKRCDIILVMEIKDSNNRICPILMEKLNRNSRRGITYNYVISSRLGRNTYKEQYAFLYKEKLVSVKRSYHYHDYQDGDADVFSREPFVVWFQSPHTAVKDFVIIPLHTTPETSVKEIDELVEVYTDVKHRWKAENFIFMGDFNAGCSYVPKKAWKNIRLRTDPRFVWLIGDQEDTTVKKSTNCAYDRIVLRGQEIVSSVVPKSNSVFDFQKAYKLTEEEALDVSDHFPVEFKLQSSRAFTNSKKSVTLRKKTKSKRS

Substance | proteolytic cleavage sites (digestion, fragments sequenced by LC and MS)
plasmin (purified) | plasmin cleaved D1L3 at the following arginine and lysine residues: R22, R29, K45, K47, K74, R81, R92, K107, K176, R212, R226, R227, K250, K259, and K262
trypsin | trypsin cleaved D1L3 at the following arginine and lysine residues: R22, R29, R51, R66, R80, R81, R95, K99, R115, K147, K163, K180, R208, R212, R235, R239, K250, and K262
